Measured values taken from patent US20210147523A1 (TEIJIN PHARMA, published 2021).
Numbering of substitutions follows the chain as printed.

T1: Mutant 1 of human SPNS2 (FLAG tag inserted in extracellular loop 1) (human, UniProt Q8IVW8 1-549)
T1 construct: on HEK293 cells; also called extracellular loop 1 mutant
T1 sequence: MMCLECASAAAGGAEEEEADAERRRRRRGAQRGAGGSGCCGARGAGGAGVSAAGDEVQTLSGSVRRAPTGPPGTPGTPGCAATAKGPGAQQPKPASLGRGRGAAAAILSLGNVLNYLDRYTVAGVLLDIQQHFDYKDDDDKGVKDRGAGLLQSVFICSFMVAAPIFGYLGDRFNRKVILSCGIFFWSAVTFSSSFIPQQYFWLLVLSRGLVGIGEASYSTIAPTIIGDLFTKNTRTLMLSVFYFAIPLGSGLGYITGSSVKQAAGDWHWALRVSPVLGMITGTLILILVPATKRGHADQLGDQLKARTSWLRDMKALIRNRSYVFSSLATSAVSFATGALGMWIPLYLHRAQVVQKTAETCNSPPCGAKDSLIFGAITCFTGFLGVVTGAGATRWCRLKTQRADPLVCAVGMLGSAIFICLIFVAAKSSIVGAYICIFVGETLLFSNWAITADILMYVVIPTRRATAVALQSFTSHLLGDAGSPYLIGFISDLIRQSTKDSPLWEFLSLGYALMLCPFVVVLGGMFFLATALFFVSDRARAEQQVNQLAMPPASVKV

T2: Mutant 2 of human SPNS2 (FLAG tag inserted in extracellular loop 5) (human, UniProt Q8IVW8 1-549)
T2 construct: on HEK293 cells; also called extracellular loop 5 mutant
T2 sequence: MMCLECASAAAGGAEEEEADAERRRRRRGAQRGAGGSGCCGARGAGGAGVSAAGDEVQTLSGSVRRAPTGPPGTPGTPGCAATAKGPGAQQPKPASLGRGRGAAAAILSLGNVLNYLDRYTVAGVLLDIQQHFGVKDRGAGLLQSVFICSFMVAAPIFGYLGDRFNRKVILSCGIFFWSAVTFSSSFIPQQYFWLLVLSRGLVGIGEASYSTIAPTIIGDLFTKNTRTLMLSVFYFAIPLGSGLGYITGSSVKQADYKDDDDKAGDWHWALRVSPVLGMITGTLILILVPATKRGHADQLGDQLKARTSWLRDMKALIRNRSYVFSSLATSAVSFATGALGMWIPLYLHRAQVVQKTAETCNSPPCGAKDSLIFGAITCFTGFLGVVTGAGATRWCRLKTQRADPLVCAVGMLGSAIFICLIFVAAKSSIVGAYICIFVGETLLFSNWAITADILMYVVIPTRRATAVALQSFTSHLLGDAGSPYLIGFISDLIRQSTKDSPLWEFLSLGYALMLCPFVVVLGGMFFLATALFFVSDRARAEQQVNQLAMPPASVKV

T3: Mutant 3 of human SPNS2 (FLAG tag inserted in extracellular loop 7) (human, UniProt Q8IVW8 1-549)
T3 construct: on HEK293 cells; also called extracellular loop 7 mutant
T3 sequence: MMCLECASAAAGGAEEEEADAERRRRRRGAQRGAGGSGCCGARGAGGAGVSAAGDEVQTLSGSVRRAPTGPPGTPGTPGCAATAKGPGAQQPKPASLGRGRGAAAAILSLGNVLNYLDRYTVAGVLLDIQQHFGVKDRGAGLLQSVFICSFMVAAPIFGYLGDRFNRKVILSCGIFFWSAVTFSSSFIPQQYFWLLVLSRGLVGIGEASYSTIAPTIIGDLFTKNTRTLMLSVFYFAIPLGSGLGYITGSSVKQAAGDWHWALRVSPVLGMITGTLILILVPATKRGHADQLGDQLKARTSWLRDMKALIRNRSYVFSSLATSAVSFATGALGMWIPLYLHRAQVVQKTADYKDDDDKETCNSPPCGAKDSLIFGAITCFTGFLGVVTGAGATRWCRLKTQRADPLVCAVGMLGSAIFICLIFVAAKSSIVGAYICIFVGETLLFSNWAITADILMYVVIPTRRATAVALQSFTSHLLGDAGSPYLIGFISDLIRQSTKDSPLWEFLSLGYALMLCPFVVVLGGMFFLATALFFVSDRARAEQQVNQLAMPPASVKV

T4: Mutant 4 of human SPNS2 (FLAG tag inserted in extracellular loop 11) (human, UniProt Q8IVW8 1-549)
T4 construct: on HEK293 cells; also called extracellular loop 11 mutant
T4 sequence: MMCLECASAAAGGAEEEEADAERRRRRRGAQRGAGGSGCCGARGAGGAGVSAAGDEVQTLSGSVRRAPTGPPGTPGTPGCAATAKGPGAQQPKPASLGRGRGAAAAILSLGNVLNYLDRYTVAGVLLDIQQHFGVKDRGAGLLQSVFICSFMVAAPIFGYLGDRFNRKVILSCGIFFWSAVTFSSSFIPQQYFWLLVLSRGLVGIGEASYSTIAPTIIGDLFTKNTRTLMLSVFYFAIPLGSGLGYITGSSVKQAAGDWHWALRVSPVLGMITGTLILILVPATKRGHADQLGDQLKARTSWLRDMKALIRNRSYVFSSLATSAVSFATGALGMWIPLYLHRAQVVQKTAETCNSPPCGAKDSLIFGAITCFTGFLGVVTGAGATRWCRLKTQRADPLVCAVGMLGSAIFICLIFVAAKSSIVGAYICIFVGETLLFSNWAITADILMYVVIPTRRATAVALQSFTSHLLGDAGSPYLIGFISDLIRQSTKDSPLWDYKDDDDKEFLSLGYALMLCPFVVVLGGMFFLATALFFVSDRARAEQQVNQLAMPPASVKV

B1: 96-1403F (antibody, IgG2b, V domains shown)
VH: EVQLVETGGGLVRPGSSLKLSCATSGFTFSDTWMSWVRQAPGKGLEWVALIKDKNSNSEANYAESIKGRFTISRDDSKSRVYLQMNTLRDQDTATYYCTRHEDFYYYSGYYFDYWGQGVMVTVSS
VL: DIVLTQSPPTLSVTPGESVSLSCRASQGISTSIHWYQQRSNESPRLLIKYASQSIAGIPSRFSGSGSGTDFILSINRVESEDFSVYYCQQTYSLPLTFGPGTKLEVKR
B2: 37-0511F (antibody, IgG2b, V domains shown)
VH: EVHLQQSGAALVRPRASVKLSCKVSGDSISRYYVHFVKQRPGQGLEWIGRIDPEDDTTKYSEKFKNRATLTADASSDTASLILSGLTSDDTATYFCSTLTGLDYWGQGVMVTVSS
VL: DIQMTQSPPVLSTSVGDRVTLRCKPSQNVHSKLDWYQQKHGEAPKLLIYYTHNLQTGIPSRFSGSGSGTDYTLTISSLQPEDVATYYCFQYYSGWTFGGGTKLEMKR
B3: 53-0707E (antibody, IgG2b, V domains shown)
VH: B2 VH with H3Q, A10E, A16T, S30T, N66K, R67K, D77N, S80Y, L83F, D89E
VL: B2 VL with P25A
B4: 64-0807A (antibody, IgG2b, V domains shown)
VH: EVQVVESGGGLVQPGRSMKLSCAALGFTFRDYYMAWVRQTPTKGLEWVAAISTGGGNTYYRDSVKGRFTISRDNAKSTLYLQMDSLRSDDTATYYCARNPYGNYFDYWGQGVMVTVSS
VL: QFVLSQPNSVSTNLGSTVKLSCKRSTGNIGSNYVHWYQRHEGRSPTTLIYRDDKRPNGVPDRFSGSIDRSSNSALLTINNVQTEDEADYFCQSYSGGMYLFGGGTKLTVL
B5: 84-1111F (antibody, IgG2b, V domains shown)
VH: B4 VH with Q82K
VL: B4 VL with L48M, K106T
B6: 65-0810G (antibody, IgG2b, V domains shown)
VH: EVHLVESGGGLVQPGRSMKLSCTASGFTFNNYYMAWVRQAPTKGLEWVASISTGGGYTYYRDSVKGRFTISRDNTGNTLYLQMDSLRSEDTATYYCARCWELPYWGQGVMVTVSS
VL: QFVLTQPNSVSTNLGSTVKLSCRRSSGNIGNNYVNWYRQHEGRSPTTMIYRDDTRPDGVPNRFSGSIDRSSNSALLTINNVRPEDEAYYFCQSYSGSIYIFGGGTKLTVL
B7: 50-0704C (antibody, IgG2b, V domains shown)
VH: EVQLVGSGGGLVQPGRSMKLSCEASGFTFSNHYMAWVRQAPTKGLEWVATISTGGGNTYYRDSVKGRFTISRDNARSTLSLQMDSLRSEDTATYYCARQDYSNYMGGFAYWGQGTLVTVSS
VL: QFVLTQPNSVSTNLGSTVKLSCTRSIGNIGNNYVNWYKQYEGRSPTTMIYRDDERPDGVPDRFSGSIDRSSNSALLTINSVQTEDEADYFCQSFSSGIFIFGGGTKLTVL
B8: 18-0211B (antibody, IgG2b, V domains shown)
VH: B7 VH with E1A, K43R, A75T, A97T, S102T
VL: B7 VL with M48L, E86G, K106T
B9: 89-1207D (antibody, IgG2b, V domains shown)
VH: B7 VH with T78I
VL: B7 VL with S80N, I98M

Each binder was assayed against T1, Mutant 1 of human SPNS2 (FLAG tag …) (assay: flow cytometry, FLAG-insertion mutant).
Protocol: (§1) After the lipofection, the HEK 293 cells cultivated overnight were recovered from the culture dishes, and reacted with a cell staining buffer (BioLegend, 420201) containing an anti-FLAG antibody (Sigma-Aldrich, F1804) and an anti-SPNS2 antibody each in a volume of 20 μg/mL for 30 minutes at room temperature. After washing with a cell staining buffer one time, the anti-FLAG antibody was detected with an anti-mouse IgG-Alexa 647 conjugate antibody, and the anti-SPNS2 antibody was detected with an anti-rat IgG-FITC conjugate antibody with flow cytometer BD LSR Fortessa (Becton Dickinson). The binding ability to each mutant was evaluated with the ratio of the FITC-positive cell rate to the Alexa 647-positive cell rate. In Table 7, symbol (+) indicates a ratio of less than 0.1, symbol (±) indicates a ratio of 0.1 or more and less than 0.5, and symbol (−) indicate a ratio of 0.5 or more.

Binder	FITC+/Alexa 647+ cell rate ratio [ratio]
B1	< 0.1
B2	< 0.1
B3	< 0.1
B4	< 0.1
B5	< 0.1
B6	< 0.1
B7	< 0.1
B8	< 0.1
B9	< 0.1

Each binder was assayed against T2, Mutant 2 of human SPNS2 (FLAG tag …) (assay: flow cytometry, FLAG-insertion mutant).
Protocol: as §1

Binder	FITC+/Alexa 647+ cell rate ratio [ratio]
B2	< 0.1
B3	< 0.1
B4	< 0.1
B5	< 0.1
B6	< 0.1
B7	< 0.1
B8	< 0.1
B9	< 0.1

What follows are binders tested against T3, Mutant 3 of human SPNS2 (FLAG tag …) (assay: flow cytometry, FLAG-insertion mutant).
Protocol: as §1

Binder	FITC+/Alexa 647+ cell rate ratio [ratio]
B1	≥ 0.5
B4	≥ 0.5
B5	≥ 0.5
B6	≥ 0.5
B7	≥ 0.5
B8	≥ 0.5
B9	≥ 0.5

These binders were tested against T4, Mutant 4 of human SPNS2 (FLAG tag …) (assay: flow cytometry, FLAG-insertion mutant).
Protocol: as §1

Binder	FITC+/Alexa 647+ cell rate ratio [ratio]
B1	≥ 0.5
B2	≥ 0.5
B3	≥ 0.5
B4	≥ 0.5
B5	≥ 0.5
B6	≥ 0.5
B7	≥ 0.5
B8	≥ 0.5
B9	≥ 0.5
